Source: doi:10.1101/816322 (bioRxiv, 2019)

T1: Flag-tagged Trichoplax adhaerens Bcl-2-like protein 2 (trBcl-2L2) (Trichoplax adhaerens, UniProt A0A1B1IJN9 1-211)
T1 sequence (looked up): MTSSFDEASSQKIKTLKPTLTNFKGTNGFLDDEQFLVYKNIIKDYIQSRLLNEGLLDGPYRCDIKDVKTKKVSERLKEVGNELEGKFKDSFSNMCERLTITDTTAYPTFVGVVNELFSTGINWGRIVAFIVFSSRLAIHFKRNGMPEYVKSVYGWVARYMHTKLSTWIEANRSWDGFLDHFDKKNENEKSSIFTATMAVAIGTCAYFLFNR

T2: Flag-tagged Trichoplax adhaerens Bcl-2-like protein 1 (trBcl-2L1) (Trichoplax adhaerens, UniProt A0A1B1IJP0 1-215)
T2 sequence (looked up): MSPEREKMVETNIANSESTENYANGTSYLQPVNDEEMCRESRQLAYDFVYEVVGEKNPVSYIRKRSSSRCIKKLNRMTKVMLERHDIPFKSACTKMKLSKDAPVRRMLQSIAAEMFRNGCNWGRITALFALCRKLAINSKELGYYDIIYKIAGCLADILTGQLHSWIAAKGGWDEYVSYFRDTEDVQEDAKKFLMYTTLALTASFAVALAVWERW

B1: EGFP-tagged Trichoplax adhaerens Bax (trBax, trBcl-2L3) (natural protein, UniProt A0A1B1IJP1 1-241, looked up)
chain: MADFTYVLITRSISTIFSSSCLIAMAHVKSVTSTPTTTTTTTTQSCPRREENLKEIAAESKKLFLDFIADRSAKDGQDQGCISQLTREHNELQIEPTSPTIQVARTIRQIGDELDSDPHLNGLLHKLHVTSSTAYSTFRRVAMRIFQDGQFNWGRIITLFFFGYRLTIRVLSESPIVEMIISWIARFIYEICSFWIAESGGWDAITQYIQQADWKNKYTLGLIAVGVLVTAFVTWQRYNSS
B2: EGFP-tagged Trichoplax adhaerens Bak (trBak, trBcl-2L4) (natural protein, UniProt A0A1B1IJN7 1-251, looked up)
chain: MSSTITIAESLENGENNDEQEEANTSRSQFRVTRAQVIRRQLSANPAHLPVSEQEVINETSSIFRSFVVESYQAERDGGIIAEEVRSFADQVQSSSNQTITPSSPTSEIGRHLAQLGDSYSVRFQNEFRLMITHLDINPGTAYRTFAGVARRLFRDGISWRRIVTLMAFGYQIAIDVMRSGVQGFLSRICNFIVRFISGEHIANWIARQGGWRAARYEGLASPGWPAIIGVATAAAASVFGVLWLSGYFRE

Columns and labels:
[1] = target: T1, Flag-tagged Trichoplax adhaerens …; assay: FRET or BRET
[2] = target: T2, Flag-tagged Trichoplax adhaerens …; assay: FRET or BRET

Binder | FRET efficacy [1] | FRET efficacy [2]
B1 | 1.97% | 5.84%
B2 | 5.45% | 11.2%
